Consider twelve molecules from patent US20200199241A1 (Chugai, published 2020).

B1: IgG1-F275 (antibody)
heavy: QVQLQESGPGLVKPSETLSLTCAVSGHSISHDHAWSWVRQPPGEGLEWIGFISYSGITNYNPSLQGRVTISRDNSKNTLYLQMNSLRAEDTAVYYCARSLARTTAMDYWGEGTLVTVSSASTKGPSVFPLAPSSKSTSGGTAALGCLVKDYFPEPVTVSWNSGALTSGVHTFPAVLQSSGLYSLSSVVTVPSSSLGTQTYICNVNHKPSNTKVDKKVEPKSCDKTHTCPPCPAPELLGGPKVFLFPPKPKDTLYISRTPEVTCVVVDVSHEDPEVKFNWYVDGVEVHNAKTKPREEQYNSTYRVVSVLTPLHQDWLNGKEYKCKVSNKALPAPIEKTISKAKGQPREPQVYTLPPSRDELTKNQVSLTCLVKGFYPSDIAVEWASNGQPENNYKTTPPVLDSDGSFFLYSKLTVDKSRWQQGNVFSCSVMHEALHYHYTQKSLSLSP
light: not shown
notes: EU numbering; copies: 2 + 2
B2: IgG1-F279 (antibody)
heavy: QVQLQESGPGLVKPSETLSLTCAVSGHSISHDHAWSWVRQPPGEGLEWIGFISYSGITNYNPSLQGRVTISRDNSKNTLYLQMNSLRAEDTAVYYCARSLARTTAMDYWGEGTLVTVSSASTKGPSVFPLAPSSKSTSGGTAALGCLVKDYFPEPVTVSWNSGALTSGVHTFPAVLQSSGLYSLSSVVTVPSSSLGTQTYICNVNHKPSNTKVDKKVEPKSCDKTHTCPPCPAPELLGGPSVFLFPPKPKDTLYISRTPEVTCVVVDVSHEDPEVKFNWYVDGVEVHNAKTKPREEQYNSTYRVVSVLTPLHHDWLNGKEYKCKVSNKALPAPIEKTISKAKGQPREPQVYTLPPSRDELTKNQVSLTCLVKGFYPSDIAVEWASNGQPENNYKTTPPVLDSDGSFFLYSKLTVDKSRWQQGNVFSCSVMHEALHYHYTQKSLSLSP
light: not shown
notes: EU numbering; copies: 2 + 2
B3: IgG1-F284 (antibody)
heavy: QVQLQESGPGLVKPSETLSLTCAVSGHSISHDHAWSWVRQPPGEGLEWIGFISYSGITNYNPSLQGRVTISRDNSKNTLYLQMNSLRAEDTAVYYCARSLARTTAMDYWGEGTLVTVSSASTKGPSVFPLAPSSKSTSGGTAALGCLVKDYFPEPVTVSWNSGALTSGVHTFPAVLQSSGLYSLSSVVTVPSSSLGTQTYICNVNHKPSNTKVDKKVEPKSCDKTHTCPPCPAPELLGGPSVFLFPPKPKDTLYISRTPEVTCVVVDVSHEDPEVKFNWYVDGVEVHNAKTKPREEQYNSTYRVVSVLTPLHQDWLNGKEYKCKVSNKALPAPIEKTISKAKGQPREPQVYTLPPSRDELTKNQVSLTCLVKGFYPSDIAVEWESNGQPENNYKTTPPVLDSDGSFFLYSKLTVDKSRWQQGNVFSCSVYHEALHYHYTQKSLSLSP
light: not shown
notes: EU numbering; copies: 2 + 2
B4: IgG1-F283 (antibody)
heavy: QVQLQESGPGLVKPSETLSLTCAVSGHSISHDHAWSWVRQPPGEGLEWIGFISYSGITNYNPSLQGRVTISRDNSKNTLYLQMNSLRAEDTAVYYCARSLARTTAMDYWGEGTLVTVSSASTKGPSVFPLAPSSKSTSGGTAALGCLVKDYFPEPVTVSWNSGALTSGVHTFPAVLQSSGLYSLSSVVTVPSSSLGTQTYICNVNHKPSNTKVDKKVEPKSCDKTHTCPPCPAPELLGGPSVFLFPPKPKDTLYISRTPEVTCVVVDVSHEDPEVKFNWYVDGVEVHNAKTKPREEQYNSTYRVVSVLTPLHQDWLNGKEYKCKVSNKALPAPIEKTISKAKGQPREPQVYTLPPSRDELTKNQVSLTCLVKGFYPSDIAVEWASNGQPENNYKTTPPVLDSDGSFFLYSKLTVDKSRWQQGNVFSCSVYHEALHYHYTQKSLSLSP
light: not shown
notes: EU numbering; copies: 2 + 2
B5: IgG1-F280 (antibody)
heavy: QVQLQESGPGLVKPSETLSLTCAVSGHSISHDHAWSWVRQPPGEGLEWIGFISYSGITNYNPSLQGRVTISRDNSKNTLYLQMNSLRAEDTAVYYCARSLARTTAMDYWGEGTLVTVSSASTKGPSVFPLAPSSKSTSGGTAALGCLVKDYFPEPVTVSWNSGALTSGVHTFPAVLQSSGLYSLSSVVTVPSSSLGTQTYICNVNHKPSNTKVDKKVEPKSCDKTHTCPPCPAPELLGGPKVFLFPPKPKDTLYISRTPEVTCVVVDVSHEFPEVKFNWYVDGVEVHNAKTKPREEQYNSTYRVVSVLTPLHQDWLNGKEYKCKVSNKALPAPIEKTISKAKGQPREPQVYTLPPSRDELTKNQVSLTCLVKGFYPSDIAVEWESNGQPENNYKTTPPVLDSDGSFFLYSKLTVDKSRWQQGNVFSCSVMHEALHYHYTQKSLSLSP
light: not shown
notes: EU numbering; copies: 2 + 2
B6: IgG1-F286 (antibody)
heavy: QVQLQESGPGLVKPSETLSLTCAVSGHSISHDHAWSWVRQPPGEGLEWIGFISYSGITNYNPSLQGRVTISRDNSKNTLYLQMNSLRAEDTAVYYCARSLARTTAMDYWGEGTLVTVSSASTKGPSVFPLAPSSKSTSGGTAALGCLVKDYFPEPVTVSWNSGALTSGVHTFPAVLQSSGLYSLSSVVTVPSSSLGTQTYICNVNHKPSNTKVDKKVEPKSCDKTHTCPPCPAPELLGGPKVFLFPPKPKDTLYISRTPEVTCVVVDVSHEDPEVKFNWYVDGVEVHNAKTKPREEQYNSTYRVVSVLTPLHQDWLNGKEYKCKVSNKALPAPIEKTISKAKGQPREPQVYTLPPSRDELTKNQVSLTCLVKGFYPSDIAVEWASNGQPENNYKTTPPVLDSDGSFFLYSKLTVDKSRWQQGNVFSCSVYHEALHYHYTQKSLSLSP
light: not shown
notes: EU numbering; copies: 2 + 2
B7: IgG1-F285 (antibody)
heavy: QVQLQESGPGLVKPSETLSLTCAVSGHSISHDHAWSWVRQPPGEGLEWIGFISYSGITNYNPSLQGRVTISRDNSKNTLYLQMNSLRAEDTAVYYCARSLARTTAMDYWGEGTLVTVSSASTKGPSVFPLAPSSKSTSGGTAALGCLVKDYFPEPVTVSWNSGALTSGVHTFPAVLQSSGLYSLSSVVTVPSSSLGTQTYICNVNHKPSNTKVDKKVEPKSCDKTHTCPPCPAPELLGGPSVFLFPPKPKDTLYISRTPEVTCVVVDVSHEDPEVKFNWYVDGVEVHNAKTKPREEQYNSTYRVVSVLTPLHQDWLNGKEYKCKVSNKALPAPIEKTISKAKGQPREPQVYTLPPSRDELTKNQVSLTCLVKGFYPSDIAVEWESNGQPENNYKTTPPVLDSDGSFFLYSKLTVDKSRWQQGNVFSCSVFHEALHYHYTQKSLSLSP
light: not shown
notes: EU numbering; copies: 2 + 2
B8: IgG1-F277 (antibody)
heavy: QVQLQESGPGLVKPSETLSLTCAVSGHSISHDHAWSWVRQPPGEGLEWIGFISYSGITNYNPSLQGRVTISRDNSKNTLYLQMNSLRAEDTAVYYCARSLARTTAMDYWGEGTLVTVSSASTKGPSVFPLAPSSKSTSGGTAALGCLVKDYFPEPVTVSWNSGALTSGVHTFPAVLQSSGLYSLSSVVTVPSSSLGTQTYICNVNHKPSNTKVDKKVEPKSCDKTHTCPPCPAPELLGGPKVFLFPPKPKDTLYISRTPEVTCVVVDVSHEDPEVKFNWYVDGVEVHNAKTKPREEQYNSTYRVVSVLTPLHQDWLNGKEYKCKVSNKALPAPIEKTISKAKGQPREPQVYTLPPSRDELTKNQVSLTCLVKGFYPSDIAVEWESNGQPENNYKTTPPVLDSDGSFFLYSKLTVDKSRWQQGNVFSCSVYHEALHYHYTQKSLSLSP
light: not shown
notes: EU numbering; copies: 2 + 2
B9: IgG1-F288 (antibody)
heavy: QVQLQESGPGLVKPSETLSLTCAVSGHSISHDHAWSWVRQPPGEGLEWIGFISYSGITNYNPSLQGRVTISRDNSKNTLYLQMNSLRAEDTAVYYCARSLARTTAMDYWGEGTLVTVSSASTKGPSVFPLAPSSKSTSGGTAALGCLVKDYFPEPVTVSWNSGALTSGVHTFPAVLQSSGLYSLSSVVTVPSSSLGTQTYICNVNHKPSNTKVDKKVEPKSCDKTHTCPPCPAPELLGGPSVFLFPPKPKDTLYISREPEVTCVVVDVSHEDPEVKFNWYVDGVEVHNAKTKPREEQYNSTYRVVSVLTVLHQDWLNGKEYKCKVSNKALPAPIEKTISKAKGQPREPQVYTLPPSRDELTKNQVSLTCLVKGFYPSDIAVEWASNGQPENNYKTTPPVLDSDGSFFLYSKLTVDKSRWQQGNVFSCSVMHEALHYHYTQKSLSLSP
light: not shown
notes: EU numbering; copies: 2 + 2
B10: IgG1-F282 (antibody)
heavy: QVQLQESGPGLVKPSETLSLTCAVSGHSISHDHAWSWVRQPPGEGLEWIGFISYSGITNYNPSLQGRVTISRDNSKNTLYLQMNSLRAEDTAVYYCARSLARTTAMDYWGEGTLVTVSSASTKGPSVFPLAPSSKSTSGGTAALGCLVKDYFPEPVTVSWNSGALTSGVHTFPAVLQSSGLYSLSSVVTVPSSSLGTQTYICNVNHKPSNTKVDKKVEPKSCDKTHTCPPCPAPELLGGPSVFLFPPKPKDTLYISRTPEVTCVVVDVSHEDPEVKFNWYVDGVEVHNAKTKPREEQYNSTYRVVSVLTPLHQDWLNGKEYKCKVSNKALPAPIEKTISKAKGQPREPQVYTLPPSRDELTKNQVSLTCLVKGFYPSDIAVEWASNGQPENNYKTTPPVLDSDGSFFLYSKLTVDKSRWQQGNVFSCSVLHEALHYHYTQKSLSLSP
light: not shown
notes: EU numbering; copies: 2 + 2
B11: IgG1-F287 (antibody)
heavy: QVQLQESGPGLVKPSETLSLTCAVSGHSISHDHAWSWVRQPPGEGLEWIGFISYSGITNYNPSLQGRVTISRDNSKNTLYLQMNSLRAEDTAVYYCARSLARTTAMDYWGEGTLVTVSSASTKGPSVFPLAPSSKSTSGGTAALGCLVKDYFPEPVTVSWNSGALTSGVHTFPAVLQSSGLYSLSSVVTVPSSSLGTQTYICNVNHKPSNTKVDKKVEPKSCDKTHTCPPCPAPELLGGPSVFLFPPKPKDTLYISRTPEVTCVVVDVSHEDPEVKFNWYVDGVEVHNAKTKPREEQYNSTYRVVSVLTPLHQDWLNGKEYKCKVSNKALPAPIEKTISKAKGQPREPQVYTLPPSRDELTKNQVSLTCLVKGFYPSDIAVAWASNGQPENNYKTTPPVLDSDGSFFLYSKLTVDKSRWQQGNVFSCSVFHEALHYHYTQKSLSLSP
light: not shown
notes: EU numbering; copies: 2 + 2
B12: IgG1-F278 (antibody)
heavy: QVQLQESGPGLVKPSETLSLTCAVSGHSISHDHAWSWVRQPPGEGLEWIGFISYSGITNYNPSLQGRVTISRDNSKNTLYLQMNSLRAEDTAVYYCARSLARTTAMDYWGEGTLVTVSSASTKGPSVFPLAPSSKSTSGGTAALGCLVKDYFPEPVTVSWNSGALTSGVHTFPAVLQSSGLYSLSSVVTVPSSSLGTQTYICNVNHKPSNTKVDKKVEPKSCDKTHTCPPCPAPELLGGPSVFLFPPKPKDTLYISRTPEVTCVVVDVSHEDPEVKFNWYVDGVEVHNAKTKPREEQYNSTYRVVSVLQPLHQDWLNGKEYKCKVSNKALPAPIEKTISKAKGQPREPQVYTLPPSRDELTKNQVSLTCLVKGFYPSDIAVEWASNGQPENNYKTTPPVLDSDGSFFLYSKLTVDKSRWQQGNVFSCSVMHEALHYHYTQKSLSLSP
light: not shown
notes: EU numbering; copies: 2 + 2

This test deals with T1, human FcRn (soluble human FcRn complexed with β2-microglobulin) (human, UniProt P61769 21-119, limits assumed).
T1 construct: also called hFcRn
T1 sequence (chain, as listed by the source limits assumed, chain 1 of 2): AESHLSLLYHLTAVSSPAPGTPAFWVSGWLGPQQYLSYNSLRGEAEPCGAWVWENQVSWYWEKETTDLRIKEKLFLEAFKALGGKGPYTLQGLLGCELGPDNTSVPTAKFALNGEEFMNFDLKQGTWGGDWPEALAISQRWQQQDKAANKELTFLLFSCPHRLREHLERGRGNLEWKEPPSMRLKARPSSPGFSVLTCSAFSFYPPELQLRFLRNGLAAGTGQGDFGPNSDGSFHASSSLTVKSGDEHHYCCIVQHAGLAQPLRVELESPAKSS
T1 sequence (P61769 21-119 limits assumed, chain 2 of 2): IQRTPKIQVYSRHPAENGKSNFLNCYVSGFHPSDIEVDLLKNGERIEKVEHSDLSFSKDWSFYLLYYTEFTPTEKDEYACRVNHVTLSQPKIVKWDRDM
The test can be described thus: SPR, pH 7.0.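 Further: antibodies captured on a Protein L sensor chip with human FcRn injected as analyte, KD calculated from fitted association and dissociation rate constants.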 In general terms: In SPR one partner is held on a chip, and binding of the other changes the refractive index at the surface.
The Kd is a measure of binding affinity in units of concentration. The molecule B1 gave a Kd of 42 nM. In turn, B2 yielded a Kd of 61 nM. To B3 belongs 100 nM; to B4, 100 nM; to B5, 41 nM. To B6 belongs 120 nM; to B7, 99 nM. B8 gave a Kd of 130 nM.

Take B9: the Kd was 190 nM. With B10, binding was characterised by a dissociation constant (Kd) of 29 nM. To B11 belongs 100 nM; to B12, 30 nM.
